Laboratory results from publication PMC5695864.

What was measured:
[1] = target: core-fucosylated RNase B (21) (bovine) (UniProt P61823); assay: ELISA
[2] = target: S2G2F-rituximab (30), core-fucosylated sialyl complex type glycoform of rituximab (human); assay: ELISA

Sequence of UniProt P61823 (P61823 27-150): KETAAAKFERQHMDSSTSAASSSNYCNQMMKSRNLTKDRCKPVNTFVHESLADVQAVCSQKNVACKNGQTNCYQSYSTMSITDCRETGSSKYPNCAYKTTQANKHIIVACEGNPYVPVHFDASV

| EC50 [1] [µM] | EC50 [2] [µM] | Molecule |
| --- | --- | --- |
| 275 |  | Aleuria aurantia lectin (AAL) (from UniProt P18891 1-313) (natural protein) |
|  | 15 | Aleuria aurantia lectin (AAL) (natural protein, biotin (AAL-biotin)) MPTEFLYTSKIAAISWAATGGRQQRVYFQDLNGKIREAQRGGDNPWTGGSSQNVIGEAKLFSPLAAVTWKSAQGIQIRVYCVNKDNILSEFVYDGSKWITGQLGSVGVKVGSNSKLAALQWGGSESAPPNIRVYYQKSNGSGSSIHEYVWSGKWTAGASFGSTVPGTGIGATAIGPGRLRIYYQATDNKIREHCWDSNSWYVGGFSASASAGVSIAAISWGSTPNIRVYWQKGREELYEAAYGGSWNTPGQIKDASRPTPSLPDTFIAANSSGNIDISVFFQASGVSLQQWQWISGKGWSIGAVVPTGTPAGW |
